Results: paper PMC4067148 (Biochemistry, 2014)
Changes are numbered by the printed parent chain. Names may count otherwise.

Columns and labels:
native gel or EMSA [1] = target: the molecule itself; test: native gel or EMSA
native gel or EMSA [2] = target: the molecule itself; test: native gel or EMSA; remark: listed apart in the source

B1: wild-type AcrB (natural protein, Escherichia coli)
chain: MPNFFIDRPIFAWVIAIIIMLAGGLAILKLPVAQYPTIAPPAVTISASYPGADAKTVQDTVTQVIEQNMNGIDNLMYMSSNSDSTGTVQITLTFESGTDADIAQVQVQNKLQLAMPLLPQEVQQQGVSVEKSSSSFLMVVGVINTDGTMTQEDISDYVAANMKDAISRTSGVGDVQLFGSQYAMRIWMNPNELNKFQLTPVDVITAIKAQNAQVAAGQLGGTPPVKGQQLNASIIAQTRLTSTEEFGKILLKVNQDGSRVLLRDVAKIELGGENYDIIAEFNGQPASGLGIKLATGANALDTAAAIRAELAKMEPFFPSGLKIVYPYDTTPFVKISIHEVVKTLVEAIILVFLVMYLFLQNFRATLIPTIAVPVVLLGTFAVLAAFGFSINTLTMFGMVLAIGLLVDDAIVVVENVERVMAEEGLPPKEATRKSMGQIQGALVGIAMVLSAVFVPMAFFGGSTGAIYRQFSITIVSAMALSVLVALILTPALCATMLKPIAKGDHGEGKKGFFGWFNRMFEKSTHHYTDSVGGILRSTGRYLVLYLIIVVGMAYLFVRLPSSFLPDEDQGVFMTMVQLPAGATQERTQKVLNEVTHYYLTKEKNNVESVFAVNGFGFAGRGQNTGIAFVSLKDWADRPGEENKVEAITMRATRAFSQIKDAMVFAFNLPAIVELGTATGFDFELIDQAGLGHEKLTQARNQLLAEAAKHPDMLTSVRPNGLEDTPQFKIDIDQEKAQALGVSINDINTTLGAAWGGSYVNDFIDRGRVKKVYVMSEAKYRMLPDDIGDWYVRAADGQMVPFSAFSSSRWEYGSPRLERYNGLPSMEILGQAAPGKSTGEAMELMEQLASKLPTGVGYDWTGMSYQERLSGNQAPSLYAISLIVVFLCLAALYESWSIPFSVMLVVPLGVIGALLAATFRGLTNDVYFQVGLLTTIGLSAKNAILIVEFAKDLMDKEGKGLIEATLDAVRMRLRPILMTSLAFILGVMPLVISTGAGSGAQNAVGTGVMGGMVTATVLAIFFVPVFFVVVRRRFSRKNEDIEHSHTVDHH
Native gel or EMSA [1]
  KX (trimer association constant, mole fraction): 1.6e+09

B2: AcrB_(W895G) (natural protein, Escherichia coli)
chain: B1 chain with W895G
Native gel or EMSA [2]
  stoichiometry N: 3
Native gel or EMSA [1]
  KX (trimer association constant, mole fraction): 2.2e+07

B3: AcrB_(L886G/E893G/W895G) (natural protein, Escherichia coli)
chain: B1 chain with L886G, E893G, W895G
Native gel or EMSA [2]
  stoichiometry N: 3
Native gel or EMSA [1]
  KX (trimer association constant, mole fraction): 1e+07

B4: AcrB_(L886G/E893G) (natural protein, Escherichia coli)
chain: B1 chain with L886G, E893G
Native gel or EMSA [2]
  stoichiometry N: 3
Native gel or EMSA [1]
  KX (trimer association constant, mole fraction): 1e+07

B5: AcrB_(L886G) (natural protein, Escherichia coli)
chain: B1 chain with L886G
Native gel or EMSA [2]
  stoichiometry N: 3
Native gel or EMSA [1]
  KX (trimer association constant, mole fraction): 1.4e+07

B6: AcrB_(E893G) (natural protein, Escherichia coli)
chain: B1 chain with E893G
Native gel or EMSA [2]
  stoichiometry N: 3
Native gel or EMSA [1]
  KX (trimer association constant, mole fraction): 3.2e+09

B7: AcrB_(E893G/W895G) (natural protein, Escherichia coli)
chain: B1 chain with E893G, W895G
Native gel or EMSA [2]
  stoichiometry N: 3
Native gel or EMSA [1]
  KX (trimer association constant, mole fraction): 8.6e+06
